Test: soluble on expression in E. coli; label from the status in PepcDB or PDB records
With “MGIRVKRRQHQHLLESLVHSTAKQQGDFTKTAELATELLCQNLAVSLVSIWIFSADQGTQSLVAQFGSMALQDTYRPSLLHTVPRYLNELKNYRHIDAGNTLIDPRLTELVDSYFIPRQILSSLDVGIRINGHLEGVLCIERAQVTHHWHDSEIHLACQMADQLALTLATKHAYDKEERLSLFRCAIEQSRQMSMLEHHHHHH” the “soluble on expression in E. coli” value was “soluble”. In the case of “MGITTNLISEVSKFYYALKYHAKFMSLGELGCYASHYSLWEKCIELNEAICILEDDITLKEDFKEGLDFLEKHIQELGYIRLMHLLYDASVKSEPLSHKNHEIQERVGIIKAYSEGVGTQGYVITPKIAKVFLKCSRKWVVPVDTIMDATFIHGVKNLVLQPFVIADDEQISTIARKEEPYSPKIALMRELHFKYLKYWQFVLEHHHHHH”, the “soluble on expression in E. coli” value is reported as “soluble”. In the case of “MGKARGVNNGVNESSLGYLFGSGQPSSAAAATMGTTTTTTTTTTTDGTGGRPITTTTTTVTDNKKTSAGVRGSPNNYFRSEGQNCGNFLTDRPSTKVHAAPGGGSSLDYLFGGPSPAGSGNK”, the “soluble on expression in E. coli” value is reported as “not soluble”. For “MGKNKQNKFFQMKASANGKTADVFIYGEITKYAWEEYGEVSSITFKNELDELGDDIKTINLYINSPGGSVFETMAIIAMLQRHHAKIISYIDGIGASCASVLPMISDKIIMYANSMMMIHNAWTYASGNADQLRKAADDIERINQSMVQHYLTRAGDKLDEDTLKQLLDAETWLSAEEAMGYGLCDEIIPANNATACLDEKWMKEYKNIPQQLVNAQANISSNEMLERQKIAEEAKANADYIKTILGRIHS”, the “soluble on expression in E. coli” value was “not soluble”. In the case of “MGKPVVAIVGRPNVGKSTIFNRIAGERISIVEDTPGVTRDRIYSSAEWLNYDFNLIDTGGIDIGDEPFLAQIRQQAEIAMDEADVIIFMVNGREGVTAADEEVAKILYRTKKPVVLAVNKLDNTEMRANIYDFYSLGFGEPYPISGTHGLGLGDLLDAVAEHFKNIPETKYNEEVIQFCLIGRPNVGKSSLVNAMLGEERVIVSNVAGTTRDAVDTSFTYNQQEFVIVDTAGMRKKGKVYETTEKYSVLRALKAIDRSEVVAVVLDGEEGIIEQDKRIAGYAHEAGKAVVIVVNKWDAVDKDESTMKEFEENIRDHFQFLDYAPILFMSALTKKRIHTLMPAIIKASENHSLRVQTNVLNDVIMDAVAMNPTPTHNGSRLKIYYATQVSVKPPSFVVFVNDPELMHFSYERFLENRIRDAFGFEGTPIKIFARARK”, the “soluble on expression in E. coli” value is reported as “soluble”. For “MGKRSGASYRSRRPKLACADWDKRMMQTQPFRLPRFTPFGVIEKGVELATGLSQLERYYQQRPTTRDGFEFMRYTLEALNVHYQVDRGRVEQIPAQGPVVIVANHPLGAIEGVILADLVGQVRKDVKVLANQLLKRLPEIEPLFIGVDVFNGAQASKTNARGIREAHRHLAEGGVLIVFPAGEVSTPQKETGQLSDIDWSQSVAKFIQRSQARCVPIYIHGRNSAWFYRAGKIHPLLRTAMLGRELLNKSASTISLCIGQPIPYAELKEFTKDEDVVNYLRLNTYLMSPHGQVESAKVSFTIPVIDPVPKAALIAELAQLDKQAKLLEQGEFTVYCVPSTHIPLMMQEIGRVREISFRAVGEGSGQACDVDAYDHHYWQLFVWNREQSELVGAYRMGLVDKIVAERGLQGLYSRSLFHYDHAFLATLENAIELGRSVVAEQYQRNLNSLLLLWKGIARFVELNPHYTHLFGPVSISNDYSPAARQLMAATLSIHHYDQHKAALVSPSTPLRAGTEVFWQKSLLSALASVSLLSKVVARMEQGNGLPVLLRQYLGMNGKLVCLNVDPAFNDALDGLIVVNLKQVPLKTLAKYMGKEAAQHYLCSVT”, the “soluble on expression in E. coli” value was “not soluble”. With “MGKSLDEQFEAAVWIINALPKNGPIKTSINDQLQMYSLYKQATSGKCDTIQPYFFQIEQRMKWNAWNQLGNMDEAEAKAQYVEKMLKLCNQAEAEHNLMEFLSDPTIADLLPKQNQLREHFATLGRTTVKGFEGETVEINGVSISF” the “soluble on expression in E. coli” value was “not soluble”. In the case of “MGLAASEALQGSEQEINSAFSNQITPVISGDYIVWQDERDGNWDIYMYDMSAGRTETSLFNGPKDEIEPAISGSRVVLADNRRGNYDIYMYDISTKKEVQVTSDKSEQKEPAISEDIIVWTDRRNQNTDIYMYDLTTKEETRITDDKADQSQPAVWGNIIVWKDTRNGNEDIYMYDISAGKESPVVMDSAAQTNPVIEGDYIVWEDRRAGNLDIYMYEISTGKEKPVCTDPSPQKTPAISDGRIVWADGRIKGTNIFIYDIATGQEKTVSTASEYESNPSIDGNRIVWQDKRKGAMDIFMFTEDASETESTAGEKTEAETGSKAPLGIYPVSAGVIAAYLMINSGKKGKRKTLEHHHHHH”, the “soluble on expression in E. coli” value is reported as “not soluble”. With “MGLCLAKRNHDADDDEPHIELAGGNVHLITTKERWDQKLSEASRDGKIVLANFSARWCGPCKQIAPYYIELSENYPSLMFLVIDVDELSDFSASWEIKATPTFFFLRDGQQVDKLVGANKPELHKKITAILDSLPPSDK” the “soluble on expression in E. coli” value was “soluble”.
